Consider 8 molecules from patent US20170073690A1 (CEMM FORSCHUNGZENTRUM FUER MOLEKULARE MEDIZIN, published 2017).

One test has as its target LAMTOR4 (human, UniProt Q0VGL1 1-99). Briefly: TAP-LC-MS/MS, SII-HA-tagged bait, HEK293 Flp-In TREx cells. On the procedure: (§1) Tandem affinity STREP-HA purifications were performed as previously described³. In brief, cells were stimulated with doxycycline/tetracycline for 24 h to induce expression of SII-HA-tagged bait proteins. Induction of SII-HA-LAMTOR 3 was combined with 9 h starvation in serum free medium. Protein complexes were isolated by TAP using streptavidin agarose followed by elution with biotin, and a second purification step using HA-agarose beads. Proteins were eluted with 100 mM formic acid, neutralized with triethylammonium bicarbonate (TEAB) and digested with trypsin, and the peptides were analysed by LC-MS/MS.

The target of a further test is LAMTOR5 (human, UniProt O43504 1-91). Described as above. On the procedure:
as §1

In test [1] the target is T1, LAMTOR1 (human, UniProt Q6IAA8 2-161).
T1 construct: Endogenous in HEK293/HEK293T cells, or C-terminally tagged (V5 or SII-HA) when used as bait
T1 sequence (Q6IAA8 2-161 limits assumed): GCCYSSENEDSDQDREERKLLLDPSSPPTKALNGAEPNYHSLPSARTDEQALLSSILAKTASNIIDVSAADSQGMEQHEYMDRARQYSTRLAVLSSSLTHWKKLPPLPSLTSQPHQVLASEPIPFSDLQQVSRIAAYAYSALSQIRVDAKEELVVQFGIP
Kind of test: anti-HA co-IP of tagged full length point mutant from HEK293T, immunoblot (FIG. 9C).

Test [2] has as its target T2, LAMTOR3 (human, UniProt Q9UHA4 1-124, limits assumed).
T2 construct: also called SII-HA-LAMTOR 3
The test is described as above.

Test [3] concerns the target T3, RAGA (human, UniProt Q7L523 1-313).
T3 construct: Endogenous, or N-terminally tagged as bait; RAG GTPases act as heterodimers of RAGA/B with RAGC/D; also called RAG GTPase A
The test is described as above.

Test [4] addresses T4, RAGC (human, UniProt Q9HB90 1-399).
T4 construct: Endogenous, or N-terminally tagged as bait; also called RAG GTPase C
Described as above.

The target of test [5] is T1, LAMTOR1. Kind of test: anti-HA co-IP of tagged deletion construct from HEK293T, immunoblot (FIG. 2D). From the text: (§2) Proteins filtered using SAINT³⁵ that interacted with at least five bait proteins were retained. Previously published interactors of the Ragulator complex and RAG GTPases that were also detected are highlighted. b, Tabular view of spectral counts (maximum of biological replicate) and sequence coverage (percentage) of the core Ragulator network and published interactors detected. c HEK293T cells were transfected with the indicated constructs or empty vector (−). […] Anti-HA immunoprecipitates and cell extracts were analysed by immunoblot with the indicated antibodies. Deletion constructs are labelled with the number of the encoded amino acids (d) and point mutants with the amino acid motif substituted to alanine (e).
(§3) Cells were transfected with Polyfect (Qiagen) and used for experiments after 24 hours. For lysis, cells were resuspended in Nonidet-40 lysis buffer (1% NP-40, 50 mM Hepes pH7.4, 250 mM NaCl, 5 mM EDTA, Halt phosphatase inhibitor cocktail (ThermoScientific), one tablet of EDTA-free protease inhibitor (Roche) per 50 ml) on ice for 5 min. Lysates were cleared by centrifugation in a microcentrifuge (13000 r.p.m., 10 min, 4 C). Proteins were quantified with BCA (Pierce). […]
On the technique in general: Immunoblotting shows a protein as a band on a membrane.

Test [6] has as its target T3, RAGA. The description is as above.
Description: as §2, §3

For test [7], the target named is T1, LAMTOR1. Briefly: anti-HA co-IP of tagged point mutant from HEK293T, immunoblot (FIG. 2E).
Description: as §2
(§4) Cells were transfected with Polyfect (Qiagen) and used for experiments after 24 hours. For lysis, cells were resuspended in Nonidet-40 lysis buffer (1% NP-40, 50 mM Hepes pH7.4, 250 mM NaCl, 5 mM EDTA, Halt phosphatase inhibitor cocktail (ThermoScientific), one tablet of EDTA-free protease inhibitor (Roche) per 50 ml) on ice for 5 min. Lysates were cleared by centrifugation in a microcentrifuge (13000 r.p.m., 10 min, 4 C). Proteins were quantified with BCA (Pierce). For immunoprecipitations, lysates were precleared on Sepharose6 beads (Sigma) (40 min. with rotation, 4° C.) and then incubated either with HA- or V5-coupled beads (3 h with rotation, 4° C.) or with primary antibody and protein G-sepharose (GE healthcare) (14 h with rotation, 4° C.). Beads were recovered and washed four times with lysis buffer before analysis by SDS-PAGE and immunoblotting.

Test [8] deals with T2, LAMTOR3. Described as above.
Description: as §2, §4

The target in test [9] is T3, RAGA. The test is described as above.
Description: as §2, §4

The target of test [10] is T4, RAGC. Described as above.
Description: as §2, §4

T2 sequence (Q9UHA4 whole entry): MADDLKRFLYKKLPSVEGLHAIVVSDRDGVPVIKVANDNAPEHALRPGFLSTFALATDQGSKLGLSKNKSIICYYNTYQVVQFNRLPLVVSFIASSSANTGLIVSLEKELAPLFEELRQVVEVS
T4 sequence (Q9HB90 whole entry): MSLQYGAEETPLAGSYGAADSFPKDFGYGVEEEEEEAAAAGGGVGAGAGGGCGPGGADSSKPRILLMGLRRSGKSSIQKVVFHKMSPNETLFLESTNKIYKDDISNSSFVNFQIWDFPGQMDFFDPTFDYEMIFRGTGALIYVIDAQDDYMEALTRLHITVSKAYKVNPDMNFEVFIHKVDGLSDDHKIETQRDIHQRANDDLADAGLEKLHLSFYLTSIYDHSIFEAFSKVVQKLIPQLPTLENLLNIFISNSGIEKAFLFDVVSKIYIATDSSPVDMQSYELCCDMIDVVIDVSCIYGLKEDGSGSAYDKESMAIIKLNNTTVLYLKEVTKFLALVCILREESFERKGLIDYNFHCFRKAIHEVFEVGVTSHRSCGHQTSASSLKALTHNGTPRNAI
T3 sequence (Q7L523 whole entry): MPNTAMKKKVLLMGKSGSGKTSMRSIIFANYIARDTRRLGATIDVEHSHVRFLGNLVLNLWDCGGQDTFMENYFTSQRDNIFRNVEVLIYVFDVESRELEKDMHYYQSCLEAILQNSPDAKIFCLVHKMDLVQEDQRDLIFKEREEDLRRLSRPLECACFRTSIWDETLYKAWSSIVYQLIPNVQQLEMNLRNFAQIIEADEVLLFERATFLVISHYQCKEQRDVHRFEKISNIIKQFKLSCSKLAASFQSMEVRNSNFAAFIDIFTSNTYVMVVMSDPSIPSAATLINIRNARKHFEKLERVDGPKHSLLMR

B1: SLC38A1 (other)
chain: MMHFKSGLELTELQNMTVPEDDNISNDSNDFTEVENGQINSKFISDRESRRSLTNSHLEKKKCDEYIPGTTSLGMSVFNLSNAIMGSGILGLAFALANTGILLFLVLLTSVTLLSIYSINLLLICSKETGCMVYEKLGEQVFGTTGKFVIFGATSLQNTGAMLSYLFIVKNELPSAIKFLMGKEETFSAWYVDGRVLVVIVTFGIILPLCLLKNLGYLGYTSGFSLSCMVFFLIVVIYKKFQIPCIVPELNSTISANSTNADTCTPKYVTFNSKTVYALPTIAFAFVCHPSVLPIYSELKDRSQKKMQMVSNISFFAMFVMYFLTAIFGYLTFYDNVQSDLLHKYQSKDDILILTVRLAVIVAVILTVPVLFFTVRSSLFELAKKTKFNLCRHTVVTCILLVVINLLVIFIPSMKDIFGVVGVTSANMLIFILPSSLYLKITDQDGDKGTQRIWAALFLGLGVLFSLVSIPLVIYDWACSSSSDEGH
notes: N-terminally SII-HA tagged bait
B1: the binding result with LAMTOR4 and with LAMTOR5 was “no binding” each time.

B2: full length SLC38A9 with motif 38RPF40 mutated to alanine (other)
chain: MANMNSDSRHLGTSEVDHERDPGPMNIQFEPSDLRSKAAACIEPTNIVNVNHVIQRVSDHASAMNKRIHYYSRLTTPADKALIAPDHVVPAPEECYVYSPLGSAYKLQSYTEGYGKNTSLVTIFMIWNTMMGTSILSIPWGIKQAGFTTGMCVIILMGLLTLYCCYRVVKSRTMMFSLDTTSWEYPDVCRHYFGSFGQWSSLLFSLVSLIGAMIVYWVLMSNFLFNTGKFIFNFIHHINDTDTILSTNNSNPVICPSAGSGGHPDNSSMIFYANDTGAQQFEKWWDKSRTVPFYLVGLLLPLLNFKSPSFFSKFNILGTVSVLYLIFLVTFKAVRLGFHLEFHWFIPTEFFVPEIRFQFPQLTGVLTLAFFIHNCIITLLKNNKKQENNVRDLCIAYMLVTLTYLYIGVLVFASFPSPPLSKDCIEQNFLDNFPSSDTLSFIARIFLLFQMMTVYPLLGYLARVQLLGHIFGDIYPSIFHVLILNLIIVGAGVIMACFYPNIGGIIRYSGAACGLAFVFIYPSLIYIISLHQEERLTWPKLIFHVFIIILGVANLIVQFFM
notes: also called 38RPF40 mutant (full length); not shown: N-terminal HA-containing tag
For the molecule B2, the binding result with LAMTOR1 [1], with LAMTOR3 [2], with RAGA [3] and with RAGC [4] was “no binding” in each case.

B3: full length SLC38A9 with motif 70YYSR73 mutated to alanine (other)
chain: MANMNSDSRHLGTSEVDHERDPGPMNIQFEPSDLRSKRPFCIEPTNIVNVNHVIQRVSDHASAMNKRIHAAAALTTPADKALIAPDHVVPAPEECYVYSPLGSAYKLQSYTEGYGKNTSLVTIFMIWNTMMGTSILSIPWGIKQAGFTTGMCVIILMGLLTLYCCYRVVKSRTMMFSLDTTSWEYPDVCRHYFGSFGQWSSLLFSLVSLIGAMIVYWVLMSNFLFNTGKFIFNFIHHINDTDTILSTNNSNPVICPSAGSGGHPDNSSMIFYANDTGAQQFEKWWDKSRTVPFYLVGLLLPLLNFKSPSFFSKFNILGTVSVLYLIFLVTFKAVRLGFHLEFHWFIPTEFFVPEIRFQFPQLTGVLTLAFFIHNCIITLLKNNKKQENNVRDLCIAYMLVTLTYLYIGVLVFASFPSPPLSKDCIEQNFLDNFPSSDTLSFIARIFLLFQMMTVYPLLGYLARVQLLGHIFGDIYPSIFHVLILNLIIVGAGVIMACFYPNIGGIIRYSGAACGLAFVFIYPSLIYIISLHQEERLTWPKLIFHVFIIILGVANLIVQFFM
notes: also called 70YYSR73 mutant (full length); not shown: N-terminal HA-containing tag
For B3, the binding result in the test with LAMTOR1 [1], in the test with LAMTOR3 [2], with RAGA [3] and with RAGC [4] was “no binding” in each case.

B4: full length SLC38A9 with motif 85PDH87 mutated to alanine (other)
chain: MANMNSDSRHLGTSEVDHERDPGPMNIQFEPSDLRSKRPFCIEPTNIVNVNHVIQRVSDHASAMNKRIHYYSRLTTPADKALIAAAAVVPAPEECYVYSPLGSAYKLQSYTEGYGKNTSLVTIFMIWNTMMGTSILSIPWGIKQAGFTTGMCVIILMGLLTLYCCYRVVKSRTMMFSLDTTSWEYPDVCRHYFGSFGQWSSLLFSLVSLIGAMIVYWVLMSNFLFNTGKFIFNFIHHINDTDTILSTNNSNPVICPSAGSGGHPDNSSMIFYANDTGAQQFEKWWDKSRTVPFYLVGLLLPLLNFKSPSFFSKFNILGTVSVLYLIFLVTFKAVRLGFHLEFHWFIPTEFFVPEIRFQFPQLTGVLTLAFFIHNCIITLLKNNKKQENNVRDLCIAYMLVTLTYLYIGVLVFASFPSPPLSKDCIEQNFLDNFPSSDTLSFIARIFLLFQMMTVYPLLGYLARVQLLGHIFGDIYPSIFHVLILNLIIVGAGVIMACFYPNIGGIIRYSGAACGLAFVFIYPSLIYIISLHQEERLTWPKLIFHVFIIILGVANLIVQFFM
notes: also called 85PDH87 mutant (full length); not shown: N-terminal HA-containing tag
With B4, the binding result with LAMTOR1 [1], with LAMTOR3 [2], with RAGA [3] and with RAGC [4] was “no binding” throughout.

B5: SLC38A9 N-terminal cytoplasmic tail deletion construct (amino acids 1-111, or amino acids 1-112) (other)
chain: MANMNSDSRHLGTSEVDHERDPGPMNIQFEPSDLRSKRPFCIEPTNIVNVNHVIQRVSDHASAMNKRIHYYSRLTTPADKALIAPDHVVPAPEECYVYSPLGSAYKLQSYTE
notes: also called cytoplasmic region of SLC38A9; not shown: N-terminal HA-containing tag (Strep-HA, vector pTO-SII-HA-GW)
Take B5: the binding result with LAMTOR1 [5] and in the test with RAGA [6] was “binds” each time.

B6: SLC38A9 cytoplasmic region with motif 38RPF40 mutated to alanine (other)
chain: MANMNSDSRHLGTSEVDHERDPGPMNIQFEPSDLRSKAAACIEPTNIVNVNHVIQRVSDHASAMNKRIHYYSRLTTPADKALIAPDHVVPAPEECYVYSPLGSAYKLQSYTE
notes: also called 38RPF40 mutant (cytoplasmic region); not shown: N-terminal HA-containing tag
Regarding B6, the binding result with LAMTOR1 [7], in the test with LAMTOR3 [8], with RAGA [9] and with RAGC [10] was “no binding” each time.

B7: SLC38A9 cytoplasmic region with motif 85PDH87 mutated to alanine (other)
chain: MANMNSDSRHLGTSEVDHERDPGPMNIQFEPSDLRSKRPFCIEPTNIVNVNHVIQRVSDHASAMNKRIHYYSRLTTPADKALIAAAAVVPAPEECYVYSPLGSAYKLQSYTE
notes: also called 85PDH87 mutant (cytoplasmic region); not shown: N-terminal HA-containing tag
In the case of B7, the binding result with LAMTOR1 [7], with LAMTOR3 [8], in the test with RAGA [9] and in the test with RAGC [10] was “no binding” throughout.

B8: SLC38A9 cytoplasmic region with motif 70YYSR73 mutated to alanine (other)
chain: MANMNSDSRHLGTSEVDHERDPGPMNIQFEPSDLRSKRPFCIEPTNIVNVNHVIQRVSDHASAMNKRIHAAAALTTPADKALIAPDHVVPAPEECYVYSPLGSAYKLQSYTE
notes: also called 70YYSR73 mutant (cytoplasmic region); not shown: N-terminal HA-containing tag
Regarding B8, the binding result with LAMTOR1 [7], with LAMTOR3 [8], with RAGA [9] and in the test with RAGC [10] was “no binding” in each case.
